Biological target: HLA.A2 on T2 mutant cells
Experiment: T2 cell HLA.A2 upregulation assay, flow cytometry with MA2.1

% Change in mean channel intensity: 48%
Binder: SAPDTRPAP (modifications not checked) […, MUC-1 tandem repeat synthetic 9 mer]
